Laboratory results as given in the supplement of paper PMC10126150.
± gives the standard deviation of the averaged measurements.

tested on: ATP; experiment: switch fluorescence ratio, 500 uM ATP over buffer (Cy3 cluster intensity, sum of 5 cycles each) (fold (ratio)); higher = stronger signal-on switching upon ATP binding; sequences stand for … in TCGTCGGCAGCGTCAGATGTGTATAAGAGACAGTTTTTTTTTTTTTTTTTTTTTTTTT…TC; settings: aptamer strand: ATP DNA aptamer (quencher-CACCTGGGGGAGTATTGCGGAGGAAGG + anchor), 100 nM annealed; ATP concentration: 500 uM
Summary of the method: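 Switching-strand clusters labelled with Cy3 on a modified Illumina MiSeq flow-cell were annealed to 100 nM quencher-labelled ATP aptamer, imaged in selection buffer, and re-imaged after 15 min with 500 uM ATP at 22 °C. This was done over five cycles with NaOH stripping and re-annealing in between. The fluorescence ratio is summed target-cycle over summed buffer-cycle Cy3 intensity per cluster, averaged per switch-domain sequence, excluding clusters outside 100-1000 RFU.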
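Further: ATP exposure 15 min at 22 °C before imaging.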

Question: How did the switch fluorescence ratio turn out when AAGGGAGGAC was run?
Answer: 0.9939 ± 0.002

Question: How did the switch fluorescence ratio turn out when ACGGGCCGGT was run?
Answer: 0.98 ± 0.069

Question: Which switch fluorescence ratio does the source give for ATGTTTCTGG here?
Answer: 0.965 ± 0.011

Question: For ACCTCCCGGG, which switch fluorescence ratio is on record?
Answer: 1.13 ± 0.17

Question: How did the switch fluorescence ratio turn out when TCGGGGGTCC was run?
Answer: 1 ± 0.066

Question: With GGAAAATAGT as the sequence, how does the switch fluorescence ratio read?
Answer: 1.02 ± 0.047

Question: Which switch fluorescence ratio does the source give for TACATGAGTA here?
Answer: 1.03 ± 0.023

Question: Which switch fluorescence ratio does the source give for AATATCGGGT here?
Answer: 0.97 ± 0.019

Question: With TGCAGGCAAG as the sequence, how does the switch fluorescence ratio read?
Answer: 1.01 ± 0.024

Question: Which switch fluorescence ratio does the source give for GGGGCGTAGT here?
Answer: 0.9995 ± 0.0075

Question: For AAATTAGGAT, which switch fluorescence ratio is on record?
Answer: 0.997 ± 0.039

Question: Which switch fluorescence ratio does the source give for TTCAGATGCG here?
Answer: 0.993 ± 0.041

Question: Which switch fluorescence ratio does the source give for AGACAGGGGT here?
Answer: 1.07 ± 0.098

Question: For AGTATAGGGC, which switch fluorescence ratio is on record?
Answer: 0.989 ± 0.049

Question: For ACGTTTCCCC, which switch fluorescence ratio is on record?
Answer: 1.09 ± 0.025

Question: How did the switch fluorescence ratio turn out when TTTGTATGG was run?
Answer: 0.9819 ± 0.0042

Question: GGCTAGGGGA was tested. Which switch fluorescence ratio did it give?
Answer: 1.13 ± 0.21

Question: Which switch fluorescence ratio does the source give for CCGTAATATT here?
Answer: 3.69 ± 1.8

Question: TTGTAGTTGG was tested. Which switch fluorescence ratio did it give?
Answer: 0.986 ± 0.058

Question: For TATTTGGACG, which switch fluorescence ratio is on record?
Answer: 1.05 ± 0.068

Question: With AAGGGTATTT as the sequence, how does the switch fluorescence ratio read?
Answer: 1.01 ± 0.028

Question: GGTGGGACGG was tested. Which switch fluorescence ratio did it give?
Answer: 0.991 ± 0.039

Question: Which switch fluorescence ratio does the source give for GGACGTGTTG here?
Answer: 0.983 ± 0.033

Question: AGGACAGATA was tested. Which switch fluorescence ratio did it give?
Answer: 1.01 ± 0.017

Question: With GATGTGCTTG as the sequence, how does the switch fluorescence ratio read?
Answer: 1.01 ± 0.013

Question: Which switch fluorescence ratio does the source give for ACCGGGAGAT here?
Answer: 0.994 ± 0.042

Question: With GGTGTGTGGG as the sequence, how does the switch fluorescence ratio read?
Answer: 1.01 ± 0.033

Question: With GGTGTTGCAA as the sequence, how does the switch fluorescence ratio read?
Answer: 1.02 ± 0.016

Question: Which switch fluorescence ratio does the source give for TAAAGGCGCG here?
Answer: 0.985 ± 0.012

Question: With TGCATTTTAC as the sequence, how does the switch fluorescence ratio read?
Answer: 1.28 ± 0.082

Question: Which switch fluorescence ratio does the source give for GGGATCGTAC here?
Answer: 1.07 ± 0.041

Question: With AGGGGTACGT as the sequence, how does the switch fluorescence ratio read?
Answer: 0.982 ± 0.011

Question: With AGGGAAATCG as the sequence, how does the switch fluorescence ratio read?
Answer: 0.979 ± 0.037

Question: How did the switch fluorescence ratio turn out when TCGGTGCGAC was run?
Answer: 1.04 ± 0.032

Question: How did the switch fluorescence ratio turn out when GCTTCGGAGG was run?
Answer: 1.015 ± 0.0024

Question: AAATTGCGAC was tested. Which switch fluorescence ratio did it give?
Answer: 1.03 ± 0.026

Question: How did the switch fluorescence ratio turn out when TTTCACAAGG was run?
Answer: 0.9836 ± 0.0089

Question: Which switch fluorescence ratio does the source give for AACGCTGAGG here?
Answer: 1.01 ± 0.009

Question: GGGAGGCGGT was tested. Which switch fluorescence ratio did it give?
Answer: 1.01 ± 0.019

Question: With AGGGGGTCAG as the sequence, how does the switch fluorescence ratio read?
Answer: 0.986 ± 0.027

Question: CTGCGAGGAT was tested. Which switch fluorescence ratio did it give?
Answer: 1.01 ± 0.034

Question: How did the switch fluorescence ratio turn out when AGGGTTTCCA was run?
Answer: 1.01 ± 0.06

Question: With ATCAGTTAAT as the sequence, how does the switch fluorescence ratio read?
Answer: 0.996 ± 0.032

Question: Which switch fluorescence ratio does the source give for AATTGGGGTA here?
Answer: 0.989 ± 0.026

Question: How did the switch fluorescence ratio turn out when ATGGGGTTAA was run?
Answer: 1.03 ± 0.022

Question: GCCTATATTT was tested. Which switch fluorescence ratio did it give?
Answer: 0.994 ± 0.017

Question: TTGGGGGCCT was tested. Which switch fluorescence ratio did it give?
Answer: 1.04 ± 0.06

Question: Which switch fluorescence ratio does the source give for CACGTTCAGC here?
Answer: 1.04 ± 0.035

Question: How did the switch fluorescence ratio turn out when CGTTAGAATA was run?
Answer: 1.017 ± 0.0078

Question: TTTTGGGGAA was tested. Which switch fluorescence ratio did it give?
Answer: 1 ± 0.024

Question: For CAGAAGGGCG, which switch fluorescence ratio is on record?
Answer: 1 ± 0.036

Question: With TGATGTTGGT as the sequence, how does the switch fluorescence ratio read?
Answer: 0.988 ± 0.014

Question: Which switch fluorescence ratio does the source give for CAAGCGGGGG here?
Answer: 1.01 ± 0.05

Question: AATGTTAATG was tested. Which switch fluorescence ratio did it give?
Answer: 0.94 ± 0.019

Question: How did the switch fluorescence ratio turn out when GGGAGGATCG was run?
Answer: 0.993 ± 0.069

Question: Which switch fluorescence ratio does the source give for GGTTGTGGCA here?
Answer: 1.03 ± 0.011

Question: With AAACGGTTAC as the sequence, how does the switch fluorescence ratio read?
Answer: 1.24 ± 0.038

Question: For TTTTGATCTT, which switch fluorescence ratio is on record?
Answer: 0.991 ± 0.012

Question: How did the switch fluorescence ratio turn out when CCAGGTCATA was run?
Answer: 1.07 ± 0.011

Question: TAGGGGGCTG was tested. Which switch fluorescence ratio did it give?
Answer: 1.01 ± 0.02

Question: How did the switch fluorescence ratio turn out when CCGGGCGACA was run?
Answer: 1.11 ± 0.031

Question: With CAATTCACCG as the sequence, how does the switch fluorescence ratio read?
Answer: 1.04 ± 0.022

Question: Which switch fluorescence ratio does the source give for TGTATAAAGT here?
Answer: 0.986 ± 0.02

Question: For AAGAGTGGGA, which switch fluorescence ratio is on record?
Answer: 1.03 ± 0.011

Question: How did the switch fluorescence ratio turn out when ATCGCATGTC was run?
Answer: 1.23 ± 0.094

Question: How did the switch fluorescence ratio turn out when ATATGTATGA was run?
Answer: 1.003 ± 0.0037

Question: How did the switch fluorescence ratio turn out when TCTTATCGTT was run?
Answer: 0.964 ± 0.019

Question: Which switch fluorescence ratio does the source give for TATGGAGCCA here?
Answer: 1.02 ± 0.032

Question: GGGGGAAGCG was tested. Which switch fluorescence ratio did it give?
Answer: 0.9685 ± 0.0034

Question: Which switch fluorescence ratio does the source give for GGCGGGAGGG here?
Answer: 0.986 ± 0.029

Question: Which switch fluorescence ratio does the source give for GGGAAAGTAT here?
Answer: 0.982 ± 0.032

Question: How did the switch fluorescence ratio turn out when GGATTTGTGG was run?
Answer: 0.978 ± 0.023

Question: CGTTCGATAT was tested. Which switch fluorescence ratio did it give?
Answer: 1.03 ± 0.03

Question: How did the switch fluorescence ratio turn out when CAATTGGGTT was run?
Answer: 0.985 ± 0.025

Question: GGAGAACCCT was tested. Which switch fluorescence ratio did it give?
Answer: 1.07 ± 0.038

Question: How did the switch fluorescence ratio turn out when TCTTGGGGT was run?
Answer: 1.06 ± 0.15

Question: CGATGCAGTT was tested. Which switch fluorescence ratio did it give?
Answer: 1.05 ± 0.041

Question: Which switch fluorescence ratio does the source give for AAAAATTTGG here?
Answer: 1 ± 0.06

Question: For CGGGGCGAGG, which switch fluorescence ratio is on record?
Answer: 1 ± 0.017

Question: Which switch fluorescence ratio does the source give for ACTGAGGATG here?
Answer: 1.06 ± 0.0063

Question: Which switch fluorescence ratio does the source give for TTTACGTGAC here?
Answer: 1.22 ± 0.16

Question: For TTAGCGAGGT, which switch fluorescence ratio is on record?
Answer: 1.02 ± 0.032

Question: ACGTTTTCGG was tested. Which switch fluorescence ratio did it give?
Answer: 0.9837 ± 0.0052

Question: CAAAAGTTGT was tested. Which switch fluorescence ratio did it give?
Answer: 0.992 ± 0.043

Question: Which switch fluorescence ratio does the source give for TGGGCGAATC here?
Answer: 0.998 ± 0.014

Question: How did the switch fluorescence ratio turn out when TGACATTGTA was run?
Answer: 1.01 ± 0.072

Question: With ATTCTTTGG as the sequence, how does the switch fluorescence ratio read?
Answer: 0.9676 ± 0.0024

Question: For TTTCGGGGGC, which switch fluorescence ratio is on record?
Answer: 0.993 ± 0.028

Question: How did the switch fluorescence ratio turn out when TTTTGAGGCT was run?
Answer: 1.01 ± 0.073

Question: How did the switch fluorescence ratio turn out when GCGGTGGGGG was run?
Answer: 1.03 ± 0.03

Question: For AGGAGTTTGC, which switch fluorescence ratio is on record?
Answer: 1.068 ± 0.0073

Question: Which switch fluorescence ratio does the source give for TTAAGCGGCC here?
Answer: 1.067 ± 0.0072

Question: TCAACTATTA was tested. Which switch fluorescence ratio did it give?
Answer: 0.977 ± 0.018

Question: How did the switch fluorescence ratio turn out when TCGGTAGGGG was run?
Answer: 0.999 ± 0.025

Question: With TTAGAGGAAC as the sequence, how does the switch fluorescence ratio read?
Answer: 0.965 ± 0.028

Question: Which switch fluorescence ratio does the source give for AGTGTACTAG here?
Answer: 1.045 ± 0.0022

Question: How did the switch fluorescence ratio turn out when CGTACGGGTG was run?
Answer: 1 ± 0.014

Question: With TAGGTTACGG as the sequence, how does the switch fluorescence ratio read?
Answer: 0.984 ± 0.024

Question: Which switch fluorescence ratio does the source give for GGGATAGTTT here?
Answer: 1 ± 0.063

Question: With TTCCATTTTT as the sequence, how does the switch fluorescence ratio read?
Answer: 0.984 ± 0.012
